# PMC8669763
# Molecular target: HLA-B*51:01 (human | human (endogenous in 721.221))
# KIR3DL1, sequence (P43629 22-444): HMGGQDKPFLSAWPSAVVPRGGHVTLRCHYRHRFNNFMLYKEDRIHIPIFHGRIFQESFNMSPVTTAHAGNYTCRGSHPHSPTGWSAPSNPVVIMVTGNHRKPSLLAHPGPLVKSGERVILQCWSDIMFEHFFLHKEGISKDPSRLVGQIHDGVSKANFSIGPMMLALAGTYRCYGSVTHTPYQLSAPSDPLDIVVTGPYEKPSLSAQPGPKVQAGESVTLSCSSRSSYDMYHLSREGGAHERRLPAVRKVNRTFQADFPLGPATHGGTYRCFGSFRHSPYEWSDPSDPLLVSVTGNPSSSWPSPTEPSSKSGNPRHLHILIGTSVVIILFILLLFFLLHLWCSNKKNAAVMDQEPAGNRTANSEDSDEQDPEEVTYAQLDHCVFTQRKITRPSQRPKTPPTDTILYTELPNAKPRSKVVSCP
substance,measurement,value
KIR3DL1 (from UniProt P43629 22-444) (receptor),"degranulation: mean frequency of CD107a+ cells in the KIR3DL1 single positive NK subset after co-culture (1:1, 3 hours) with 221-B*51:01-shERAP1 (% CD107a+ cells)",25.8
